From patent US10378034B2, “Use of a N-acetylneuraminate lyase derived from the bacterium Aliivibrio salmonicida in the production of neuraminic acid and derivatives thereof” (Universitetet i Tromsø-Norges Arktiske Universitet, priority 2014, dated 2019)

Experiments:
[1] = Integrated reaction: Neu5Ac production from GlcNAc and pyruvate at alkaline pH (TBA assay); assay type: biochemical
Protocol: For ManNAc reactions, the buffer used was HEPES, pH 8.0. […] Experiments were performed in triplicate. For ManNAc experiments, aliquots were sampled after 0.5, 1.0, 1.5, 2.5 and 4.0 h. For GlcNAc experiments, aliquots were sampled after 12, 24, 36, 48 and 72 h. Reactions were terminated by addition of 2 μl concentrated H2SO4. The time needed for N-acetylneuraminic acid (Neu5Ac) production to get started under these conditions was known to take longer time based on initial test experiments. The thiobarbituric acid (TBA) assay procedure was followed to determine the amount of Neu5Ac produced. The activity was corrected for a blank value. The blank contained all the reaction components except for enzyme.
Initially, also glycine buffer was tested at pH 10.5 and pH 11.0 for the reactions with GlcNAc. GlcNAc will chemically epimerize to ManNAc at pH values above 9.0, which the enzyme will use as substrate for the production of Neu5Ac. The epimerization is pH dependent and will increase with increasing pH. Production of Neu5Ac was higher in CAPS buffer compared to glycine buffer, so this was chosen for further experiments.

[2] = TBA assay, cleavage activity: pH and temperature profiles; assay type: biochemical
Protocol: The cleavage activity was determined by incubating 50 μl of a reaction mixture containing 5 mM Neu5Ac, 124 mM HEPES pH 8.0 and different concentrations of enzyme depending on assay type at selected temperatures for the required amount of time. Termination of the reactions and subsequent steps of the assay are as described above. The decrease in absorbance is correlated to the increase in cleavage activity.
pH profiles were determined by assaying the enzyme in triplicate for both condensation and cleavage directions at pH values ranging from 5.5 to 11.0 with 0.5 pH unit intervals. Sodium phosphate buffer was used from pH 5.5 to 7.5, HEPES buffer from pH 6.5 to 8.0, Tris-HCl buffer from pH 7.5 to 9.0 and Glycine buffer from pH 9.0 to 11.0. The reaction mixture was incubated at room temperature for 1 h before being subjected to the TBA assay. Temperature profiles were determined for both directions by assaying the enzyme in triplicate from 4 to 80° C. in HEPES buffer pH 8.0. The reaction mixture was incubated for 30 min at selected temperatures and the reaction was terminated by adding 2 μl of concentrated H2SO4 and then subjected to the TBA assay.

[3] = Long term stability at different pH (condensation activity after one month); assay type: physicochemical
Protocol: Long term stability of AsNAL at different pH was studied by incubating the enzyme at pH values from 6.0 to 11.0 at room temperature for a month. Buffers used were Sodium phosphate (pH 6.0-7.0), HEPES (pH 7.0-8.0), Tris-HCl (pH 8.0-9.0) and glycine (pH 9.0-11.0). The enzyme activity in the condensation direction was measured using the standard reaction mixture incubated at room temperature for 1 h, with subsequent TBA assay. The stability of AsNAL at different pH was also studied using the thermofluor method described by Ericsson et al. (2006) where increased or decreased stability is related to the increase or decrease in the melting temperature of the protein. For the thermofluor assay, the protein was dialyzed overnight at 4° C. against a buffer containing 10 mM HEPES pH 7.5, 150 mM NaCl and 2 mM β-ME in Pierce Slide-A-Lyzer dialysis cassettes with a 3.5 kDa cutoff. The dialyzed protein was mixed with 2 μl of 300× Sypro® Orange protein gel stain (Sigma) and 100 mM of different buffers ranging from pH 5.0 to pH 9.0. Thermal shifts were screened for by heating in an iCycler iQ Real Time PCR Detection System (Bio-Rad Laboratories) from 1 to 80° C. in increments of 1° C./min. The buffers tested were: Sodium acetate (pH 5.0), Phosphate citrate (pH 5.0-5.5), Sodium citrate (pH 5.5), MES (pH 6.0-6.5), Na-cacodylate (pH 6.0-6.5), Sodium dipotassium phosphate (pH 6.5), BisTris (pH 7.0), HEPES (pH 7.0-8.0), Tris-HCl (pH 7.5-8.5), Imidazole (pH 7.5-8.0), Bicine (pH 8.5) and BisTris propane (pH 8.5-9.0).

[4] = Comparative specific activity, condensation reaction (TBA assay); assay type: biochemical
Protocol: Both the condensation and cleavage activities of NAL were assessed using the modified thiobarbituric acid (TBA) assay developed by Aminoff (1961) and Warren (1959). The condensation activity was determined by incubating 50 μl of a reaction mixture containing 15 mM sodium pyruvate, 15 mM ManNAc, 124 mM HEPES pH 8.0 and different concentrations of enzyme depending on assay type at selected temperatures for the required amount of time. The reaction was terminated by adding 137 μl 2.5 mg/ml sodium periodate in 57 mM H2SO4, followed by incubation at 37° C. for 15 min with shaking at 1350 rpm. Sodium arsenite (50 μl, 25 mg/ml sodium arsenite in 0.5 M HCl) was added resulting in brown color. The tubes were shaken manually until the brown color disappeared. 2-thiobarbituric acid solution (100 μl, 71 mg/ml adjusted to pH 9.0) was subsequently added, and the tubes were incubated in boiling water for 7.5 min. The tubes were incubated on ice for 5 min and allowed to remain at room temperature for 5 min. The red chromophore was extracted by addition of acidic butanol (1 ml of acidic butanol with 5% HCl) and horizontal shaking for 10 min. Tubes were centrifuged at 16060×g, 7 min (room temperature) to separate the organic and inorganic phases. The organic phase containing the red chromophore (200 μl) was used for measurement of absorbance at 549 nm in a spectrophotometer (SpectraMax M2e, Molecular Devices). The amount of Neu5Ac produced was inferred from a standard curve. To generate a standard curve, different concentrations of Neu5Ac (0.031 mM-1 mM) were treated with 137 μl of 2.5 mg/ml sodium periodate in 57 mM H2SO4 and the TBA assay procedure was followed as described above.
Standard reaction mixtures were incubated at room temperature for 1 h before being subjected to the TBA assay.

B1: AsNAL: N-acetylneuraminate lyase isolated from the psychrophilic bacterium Aliivibrio salmonicida LFI1238, recombinantly expressed in E. coli (protein, listed as Aliivibrio salmonicida)
chain: MKKLTGLIAAPHTPFDSSSNVNFEEIDKIAKHLINDGVKGIYVCGTTGEGIHCSVEERKAIAERWVSACNHKLDIIVHTGALSIVDTLELTRHADTLDILATSAIGPCFFKPGSVSDLVEYCATIAAAAPSKGFYYYHSGMSGVNLNMEEFLIQADKRIPNLSGLKFNSGDLYEYQRCLRACDGKFDVPFGVDEFLPGALAVGAKSAVGSTYNYAAPHFNSIIEAFNKGDHDAVFNKMTNVIELIRVLVEFGGVAAGKIAMELHDINAGDPRLPLMPLSAEQKLTVVEKMRAANFLK
- production of Neu5Ac relative to highest amount obtained with pyruvate and ManNAc 4:1 at pH 8.0 ([1]; pyruvate and GlcNAc 4:1, CAPS pH 11.0, 48 h): around 60%
- production of Neu5Ac (in words) ([1]; pyruvate and GlcNAc, CAPS pH 11.5): able to produce Neu5Ac in the same range as at pH 11.0
- optimal temperature, cleavage reaction ([2]; HEPES buffer pH 8.0, 30 min): 65 °C
- cleavage activity retained ([2]; at 10° C., relative to highest value): 30%
- decrease in activity (condensation) after one month ([3]; Glycine pH 11.0, room temperature): 3.3%
- decrease in activity (condensation) after one month ([3]; HEPES pH 8.0, room temperature): 14.5%
- decrease in activity (condensation) after one month ([3]; Phosphate pH 7.0, room temperature): 15%
- decrease in activity (condensation) after one month ([3]; Tris-HCl pH 8.0, room temperature): 14%
- decrease in activity (condensation) after one month ([3]; Tris-HCl pH 8.5, room temperature): 6.4%
- decrease in activity (condensation) after one month ([3]; Tris-HCl pH 9.0, room temperature): 4%
- activity retained after storage compared to initial activity ([3]; all measured pH (6.0 to 11.0), one month, room temperature): More than 83%
- specific activity of the condensation reaction, higher than EcNAL ([4]; 4° C.): 40%
- specific activity of the condensation reaction, higher than EcNAL ([4]; 23° C.): 60%
- specific activity of the condensation reaction, higher than EcNAL ([4]; 37° C.): 40%
